Among the data in paper PMC4686834, “Autocrine selection of a GLP-1R G-protein biased agonist with potent antidiabetic effects” (Nature Communications, 2015) are EC50, cAMP production (Gαs; HTRF) in CHO cells expressing human GLP-1R and EC50, cAMP production (Gαs; HTRF) in HEK293 cells expressing mouse GLP-1R values, retold here.

Experiment [1] addresses human GLP-1 receptor (stable CHO cell line) (human) (UniProt P43220).
In experiment [2] the target is mouse GLP-1 receptor (HEK293 cell line) (mouse) (UniProt O35659).
Chain of mouse GLP-1 receptor (HEK293 cell line) (mouse) (O35659 22-463): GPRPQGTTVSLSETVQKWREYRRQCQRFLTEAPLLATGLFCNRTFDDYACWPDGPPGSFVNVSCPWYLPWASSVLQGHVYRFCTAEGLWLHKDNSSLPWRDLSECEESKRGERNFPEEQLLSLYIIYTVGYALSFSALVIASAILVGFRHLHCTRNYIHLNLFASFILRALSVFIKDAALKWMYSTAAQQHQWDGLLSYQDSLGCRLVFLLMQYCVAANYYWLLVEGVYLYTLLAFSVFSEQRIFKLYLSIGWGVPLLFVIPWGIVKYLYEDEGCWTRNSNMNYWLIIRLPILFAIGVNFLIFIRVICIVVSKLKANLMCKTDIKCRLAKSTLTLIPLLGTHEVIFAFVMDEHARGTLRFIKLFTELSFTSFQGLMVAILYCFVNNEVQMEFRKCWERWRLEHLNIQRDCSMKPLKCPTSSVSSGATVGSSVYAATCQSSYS

Chain of human GLP-1 receptor (stable CHO cell line) (human) (P43220 24-463): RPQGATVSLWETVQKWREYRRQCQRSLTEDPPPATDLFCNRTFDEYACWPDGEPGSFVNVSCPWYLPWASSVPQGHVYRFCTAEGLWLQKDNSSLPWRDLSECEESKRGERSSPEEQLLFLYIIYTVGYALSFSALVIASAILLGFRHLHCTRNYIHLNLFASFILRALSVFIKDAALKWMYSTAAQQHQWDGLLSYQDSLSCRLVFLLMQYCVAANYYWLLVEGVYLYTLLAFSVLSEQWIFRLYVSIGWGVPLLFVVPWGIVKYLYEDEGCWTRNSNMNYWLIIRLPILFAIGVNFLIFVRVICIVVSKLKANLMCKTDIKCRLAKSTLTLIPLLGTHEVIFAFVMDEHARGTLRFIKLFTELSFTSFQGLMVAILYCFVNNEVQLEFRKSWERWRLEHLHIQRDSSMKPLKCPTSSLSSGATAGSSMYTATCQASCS

“Exendin-4 (from UniProt P26349 48-87) (peptide)” came in with an EC50, cAMP production (Gαs; HTRF) in CHO cells expressing human GLP-1R in experiment [1] of 0.091 nM. Besides, the EC50, cAMP production (Gαs; HTRF) in HEK293 cells expressing mouse GLP-1R in experiment [2] came to 0.322 nM.
